Source: IntAct's records for PubMed 14673118

B1: Thioredoxin (Synechocystis sp. (strain PCC 6803 / Kazusa)), P52231 (parent)
chain: MSATPQVSDASFKEDVLDSELPVLVDFWAPWCGPCRMVAPVVDEISQQYEGKVKVVKLNTDENPNTASQYGIRSIPTLMIFKGGQRVDMVVGAVPKTTLASTLEKYL
partner: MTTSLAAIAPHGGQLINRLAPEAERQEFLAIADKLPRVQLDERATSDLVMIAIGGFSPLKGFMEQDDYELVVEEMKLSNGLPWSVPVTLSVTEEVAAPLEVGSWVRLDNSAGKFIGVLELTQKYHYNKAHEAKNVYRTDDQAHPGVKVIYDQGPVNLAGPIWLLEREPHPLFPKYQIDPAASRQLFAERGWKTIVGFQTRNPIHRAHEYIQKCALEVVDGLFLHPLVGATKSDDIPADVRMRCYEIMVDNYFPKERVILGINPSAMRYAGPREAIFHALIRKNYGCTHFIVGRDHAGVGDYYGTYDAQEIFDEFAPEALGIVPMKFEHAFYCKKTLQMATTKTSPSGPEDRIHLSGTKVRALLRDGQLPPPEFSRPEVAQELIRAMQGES
B2: Thioredoxin (Synechocystis sp. (strain PCC 6803 / Kazusa)), P52231 (parent)
chain: B1 chain
partner: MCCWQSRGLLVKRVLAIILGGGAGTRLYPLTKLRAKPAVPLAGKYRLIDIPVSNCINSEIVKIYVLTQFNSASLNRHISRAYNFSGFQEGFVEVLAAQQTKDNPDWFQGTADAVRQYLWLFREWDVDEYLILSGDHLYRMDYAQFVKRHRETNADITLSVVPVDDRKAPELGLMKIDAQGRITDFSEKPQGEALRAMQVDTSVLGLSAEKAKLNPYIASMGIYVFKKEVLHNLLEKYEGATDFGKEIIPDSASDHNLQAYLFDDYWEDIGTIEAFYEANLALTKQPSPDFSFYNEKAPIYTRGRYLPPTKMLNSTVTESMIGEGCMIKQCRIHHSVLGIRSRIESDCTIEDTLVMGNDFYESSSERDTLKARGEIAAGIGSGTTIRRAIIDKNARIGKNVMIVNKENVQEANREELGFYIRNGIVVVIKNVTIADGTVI
B3: Thioredoxin (Synechocystis sp. (strain PCC 6803 / Kazusa)), P52231 (parent)
chain: B1 chain
B4: Thioredoxin (Synechocystis sp. (strain PCC 6803 / Kazusa)), P52231 (parent)
chain: B1 chain
partner: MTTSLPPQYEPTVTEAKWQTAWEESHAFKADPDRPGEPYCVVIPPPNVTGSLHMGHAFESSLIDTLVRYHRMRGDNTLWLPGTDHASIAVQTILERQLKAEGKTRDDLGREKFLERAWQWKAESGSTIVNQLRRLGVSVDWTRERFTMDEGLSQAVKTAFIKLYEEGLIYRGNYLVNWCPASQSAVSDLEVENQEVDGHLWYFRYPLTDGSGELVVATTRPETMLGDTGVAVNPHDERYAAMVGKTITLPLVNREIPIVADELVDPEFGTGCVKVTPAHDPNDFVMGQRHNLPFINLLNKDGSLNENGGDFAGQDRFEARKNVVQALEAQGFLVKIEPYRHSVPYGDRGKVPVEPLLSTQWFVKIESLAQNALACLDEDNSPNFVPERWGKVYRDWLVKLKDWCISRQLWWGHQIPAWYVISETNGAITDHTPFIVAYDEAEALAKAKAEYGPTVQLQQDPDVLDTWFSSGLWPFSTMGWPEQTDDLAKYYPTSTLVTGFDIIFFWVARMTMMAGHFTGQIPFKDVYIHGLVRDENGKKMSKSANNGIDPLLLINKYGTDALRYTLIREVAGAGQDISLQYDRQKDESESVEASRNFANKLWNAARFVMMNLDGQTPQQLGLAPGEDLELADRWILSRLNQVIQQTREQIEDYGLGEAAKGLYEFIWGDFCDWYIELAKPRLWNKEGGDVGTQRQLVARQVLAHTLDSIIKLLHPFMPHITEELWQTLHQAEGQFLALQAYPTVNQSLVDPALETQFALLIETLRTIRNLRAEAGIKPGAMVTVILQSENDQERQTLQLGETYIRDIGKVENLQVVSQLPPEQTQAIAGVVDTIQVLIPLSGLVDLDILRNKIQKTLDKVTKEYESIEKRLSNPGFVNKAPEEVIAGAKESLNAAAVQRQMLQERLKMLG
B5: Thioredoxin (Synechocystis sp. (strain PCC 6803 / Kazusa)), P52231 (parent)
chain: B1 chain
partner: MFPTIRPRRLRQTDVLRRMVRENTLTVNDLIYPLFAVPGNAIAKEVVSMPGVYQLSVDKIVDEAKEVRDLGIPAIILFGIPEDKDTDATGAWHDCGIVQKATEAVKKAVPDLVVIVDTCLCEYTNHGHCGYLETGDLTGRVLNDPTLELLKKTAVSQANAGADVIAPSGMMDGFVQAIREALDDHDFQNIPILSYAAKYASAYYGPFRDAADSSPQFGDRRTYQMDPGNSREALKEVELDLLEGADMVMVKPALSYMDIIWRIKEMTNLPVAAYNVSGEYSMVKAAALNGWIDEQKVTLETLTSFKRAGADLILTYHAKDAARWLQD
B6: Thioredoxin (Synechocystis sp. (strain PCC 6803 / Kazusa)), P52231 (parent)
chain: B1 chain
partner: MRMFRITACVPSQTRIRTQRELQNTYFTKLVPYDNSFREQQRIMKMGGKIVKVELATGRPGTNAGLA
B7: Thioredoxin (Synechocystis sp. (strain PCC 6803 / Kazusa)), P52231 (parent)
chain: B1 chain
partner: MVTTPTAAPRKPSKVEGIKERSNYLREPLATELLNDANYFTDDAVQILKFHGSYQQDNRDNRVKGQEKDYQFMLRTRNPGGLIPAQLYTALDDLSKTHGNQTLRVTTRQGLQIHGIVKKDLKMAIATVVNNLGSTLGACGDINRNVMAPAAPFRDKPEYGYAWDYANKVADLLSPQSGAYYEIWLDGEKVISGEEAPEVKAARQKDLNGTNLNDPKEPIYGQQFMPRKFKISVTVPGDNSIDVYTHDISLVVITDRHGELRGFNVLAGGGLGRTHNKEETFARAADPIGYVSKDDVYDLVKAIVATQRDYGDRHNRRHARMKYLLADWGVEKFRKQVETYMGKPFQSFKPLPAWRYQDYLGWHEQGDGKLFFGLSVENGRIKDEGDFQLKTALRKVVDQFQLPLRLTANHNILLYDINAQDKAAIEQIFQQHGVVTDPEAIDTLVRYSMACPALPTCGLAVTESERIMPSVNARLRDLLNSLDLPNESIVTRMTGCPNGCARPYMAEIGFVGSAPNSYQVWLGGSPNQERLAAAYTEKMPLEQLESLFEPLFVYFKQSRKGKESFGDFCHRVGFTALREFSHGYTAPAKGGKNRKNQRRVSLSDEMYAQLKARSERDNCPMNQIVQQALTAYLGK

Variants of: B1
Settings: with sat_syny3 sat

| effect of a mutation on the interaction | Variant |
| --- | --- |
| increasing interaction | MSATPQVSDASFKEDVLDSELPVLVDFWAPWCGPSRMVAPVVDEISQQYEGKVKVVKLNTDENPNTASQYGIRSIPTLMIFKGGQRVDMVVGAVPKTTLASTLEKYL |

Variants of: B2
Settings: with glgc_syny3 glgC

| effect of a mutation on the interaction | Variant |
| --- | --- |
| increasing interaction | MSATPQVSDASFKEDVLDSELPVLVDFWAPWCGPSRMVAPVVDEISQQYEGKVKVVKLNTDENPNTASQYGIRSIPTLMIFKGGQRVDMVVGAVPKTTLASTLEKYL |

Variants of: B3
Settings: with glts_syny3 gltS

| effect of a mutation on the interaction | Variant |
| --- | --- |
| increasing interaction | MSATPQVSDASFKEDVLDSELPVLVDFWAPWCGPSRMVAPVVDEISQQYEGKVKVVKLNTDENPNTASQYGIRSIPTLMIFKGGQRVDMVVGAVPKTTLASTLEKYL |

Variants of: B3
Settings: with rbl_syny3 cbbL

| effect of a mutation on the interaction | Variant |
| --- | --- |
| increasing interaction | MSATPQVSDASFKEDVLDSELPVLVDFWAPWCGPSRMVAPVVDEISQQYEGKVKVVKLNTDENPNTASQYGIRSIPTLMIFKGGQRVDMVVGAVPKTTLASTLEKYL |

Variants of: B3
Settings: with eftu_syny3 tuf

| effect of a mutation on the interaction | Variant |
| --- | --- |
| increasing interaction | MSATPQVSDASFKEDVLDSELPVLVDFWAPWCGPSRMVAPVVDEISQQYEGKVKVVKLNTDENPNTASQYGIRSIPTLMIFKGGQRVDMVVGAVPKTTLASTLEKYL |

Variants of: B3
Settings: with gltb_syny3 gltB

| effect of a mutation on the interaction | Variant |
| --- | --- |
| increasing interaction | MSATPQVSDASFKEDVLDSELPVLVDFWAPWCGPSRMVAPVVDEISQQYEGKVKVVKLNTDENPNTASQYGIRSIPTLMIFKGGQRVDMVVGAVPKTTLASTLEKYL |

Variants of: B3
Settings: with apce_syny3 apcE

| effect of a mutation on the interaction | Variant |
| --- | --- |
| increasing interaction | MSATPQVSDASFKEDVLDSELPVLVDFWAPWCGPSRMVAPVVDEISQQYEGKVKVVKLNTDENPNTASQYGIRSIPTLMIFKGGQRVDMVVGAVPKTTLASTLEKYL |

Variants of: B4
Settings: with syv_syny3 valS

| effect of a mutation on the interaction | Variant |
| --- | --- |
| increasing interaction | MSATPQVSDASFKEDVLDSELPVLVDFWAPWCGPSRMVAPVVDEISQQYEGKVKVVKLNTDENPNTASQYGIRSIPTLMIFKGGQRVDMVVGAVPKTTLASTLEKYL |

Variants of: B5
Settings: with hem2_syny3 hemB

| effect of a mutation on the interaction | Variant |
| --- | --- |
| increasing interaction | MSATPQVSDASFKEDVLDSELPVLVDFWAPWCGPSRMVAPVVDEISQQYEGKVKVVKLNTDENPNTASQYGIRSIPTLMIFKGGQRVDMVVGAVPKTTLASTLEKYL |

Variants of: B6
Settings: with pyc1_syny3 apcC

| effect of a mutation on the interaction | Variant |
| --- | --- |
| increasing interaction | MSATPQVSDASFKEDVLDSELPVLVDFWAPWCGPSRMVAPVVDEISQQYEGKVKVVKLNTDENPNTASQYGIRSIPTLMIFKGGQRVDMVVGAVPKTTLASTLEKYL |

Variants of: B7
Settings: with sir_syny3 sir

| effect of a mutation on the interaction | Variant |
| --- | --- |
| increasing interaction | MSATPQVSDASFKEDVLDSELPVLVDFWAPWCGPSRMVAPVVDEISQQYEGKVKVVKLNTDENPNTASQYGIRSIPTLMIFKGGQRVDMVVGAVPKTTLASTLEKYL |
